The source of these data is WO2013087874A1 (dated 2013).

The chains are these.
B1: VHH L-15a (#2169, SEQ ID NO:3) (VHH)
VHH: DVQLQESGGGLVQAGGSLRLSCAASRSLRSIAVMGWFRQAPGKQREYVARITSGGYTDYADSVKGRFTIFDDSANNTVYLQMTSLKPEDTAVYHCAAGGFTEAYSGTYYPDSWGQGTQVTVSS
B2: VHH L+18a (#2173, SEQ ID NO:5) (VHH)
VHH: DVQLQASGGGLVQAGGSMRLSCAASGFTFDEFAIGWFRQAPGKEREAVSCIRSSDGSTWYADSVKGRFTISSDNAKNTVTLRMNSLKPEDTADYTCAALGSGYGCSLFTTTVGMDYWGKGTLVTVSS
B3: VHH L-14 (#2622, SEQ ID NO:2) (VHH)
VHH: DVQLQASGGGLVPAGGSLRLSCAASGHSFSSLDMAWFRQAPGREREFVAQISWSGSHTYYQDAVKGRFTISRDSAKNTGYLQMTNLKPEDTAVYYCAATYRPNTFTPAEYDYWGQGTQVTVSA
B4: VHH S-20a (#2352, SEQ ID NO:11) (VHH)
VHH: DVQLQASGGGLVQAGDSLRLSCSASGLTFSSYAMGWFRQAPGKEREFVAAISWANGGSTVYADPVKGRFTISRDNAKNTVYLQMNSLKPEDTAVYSCAAADQRVGYIEYYSGSSGKEYDYWGQGTQVTVSS

T1 sequence (P16154 whole entry): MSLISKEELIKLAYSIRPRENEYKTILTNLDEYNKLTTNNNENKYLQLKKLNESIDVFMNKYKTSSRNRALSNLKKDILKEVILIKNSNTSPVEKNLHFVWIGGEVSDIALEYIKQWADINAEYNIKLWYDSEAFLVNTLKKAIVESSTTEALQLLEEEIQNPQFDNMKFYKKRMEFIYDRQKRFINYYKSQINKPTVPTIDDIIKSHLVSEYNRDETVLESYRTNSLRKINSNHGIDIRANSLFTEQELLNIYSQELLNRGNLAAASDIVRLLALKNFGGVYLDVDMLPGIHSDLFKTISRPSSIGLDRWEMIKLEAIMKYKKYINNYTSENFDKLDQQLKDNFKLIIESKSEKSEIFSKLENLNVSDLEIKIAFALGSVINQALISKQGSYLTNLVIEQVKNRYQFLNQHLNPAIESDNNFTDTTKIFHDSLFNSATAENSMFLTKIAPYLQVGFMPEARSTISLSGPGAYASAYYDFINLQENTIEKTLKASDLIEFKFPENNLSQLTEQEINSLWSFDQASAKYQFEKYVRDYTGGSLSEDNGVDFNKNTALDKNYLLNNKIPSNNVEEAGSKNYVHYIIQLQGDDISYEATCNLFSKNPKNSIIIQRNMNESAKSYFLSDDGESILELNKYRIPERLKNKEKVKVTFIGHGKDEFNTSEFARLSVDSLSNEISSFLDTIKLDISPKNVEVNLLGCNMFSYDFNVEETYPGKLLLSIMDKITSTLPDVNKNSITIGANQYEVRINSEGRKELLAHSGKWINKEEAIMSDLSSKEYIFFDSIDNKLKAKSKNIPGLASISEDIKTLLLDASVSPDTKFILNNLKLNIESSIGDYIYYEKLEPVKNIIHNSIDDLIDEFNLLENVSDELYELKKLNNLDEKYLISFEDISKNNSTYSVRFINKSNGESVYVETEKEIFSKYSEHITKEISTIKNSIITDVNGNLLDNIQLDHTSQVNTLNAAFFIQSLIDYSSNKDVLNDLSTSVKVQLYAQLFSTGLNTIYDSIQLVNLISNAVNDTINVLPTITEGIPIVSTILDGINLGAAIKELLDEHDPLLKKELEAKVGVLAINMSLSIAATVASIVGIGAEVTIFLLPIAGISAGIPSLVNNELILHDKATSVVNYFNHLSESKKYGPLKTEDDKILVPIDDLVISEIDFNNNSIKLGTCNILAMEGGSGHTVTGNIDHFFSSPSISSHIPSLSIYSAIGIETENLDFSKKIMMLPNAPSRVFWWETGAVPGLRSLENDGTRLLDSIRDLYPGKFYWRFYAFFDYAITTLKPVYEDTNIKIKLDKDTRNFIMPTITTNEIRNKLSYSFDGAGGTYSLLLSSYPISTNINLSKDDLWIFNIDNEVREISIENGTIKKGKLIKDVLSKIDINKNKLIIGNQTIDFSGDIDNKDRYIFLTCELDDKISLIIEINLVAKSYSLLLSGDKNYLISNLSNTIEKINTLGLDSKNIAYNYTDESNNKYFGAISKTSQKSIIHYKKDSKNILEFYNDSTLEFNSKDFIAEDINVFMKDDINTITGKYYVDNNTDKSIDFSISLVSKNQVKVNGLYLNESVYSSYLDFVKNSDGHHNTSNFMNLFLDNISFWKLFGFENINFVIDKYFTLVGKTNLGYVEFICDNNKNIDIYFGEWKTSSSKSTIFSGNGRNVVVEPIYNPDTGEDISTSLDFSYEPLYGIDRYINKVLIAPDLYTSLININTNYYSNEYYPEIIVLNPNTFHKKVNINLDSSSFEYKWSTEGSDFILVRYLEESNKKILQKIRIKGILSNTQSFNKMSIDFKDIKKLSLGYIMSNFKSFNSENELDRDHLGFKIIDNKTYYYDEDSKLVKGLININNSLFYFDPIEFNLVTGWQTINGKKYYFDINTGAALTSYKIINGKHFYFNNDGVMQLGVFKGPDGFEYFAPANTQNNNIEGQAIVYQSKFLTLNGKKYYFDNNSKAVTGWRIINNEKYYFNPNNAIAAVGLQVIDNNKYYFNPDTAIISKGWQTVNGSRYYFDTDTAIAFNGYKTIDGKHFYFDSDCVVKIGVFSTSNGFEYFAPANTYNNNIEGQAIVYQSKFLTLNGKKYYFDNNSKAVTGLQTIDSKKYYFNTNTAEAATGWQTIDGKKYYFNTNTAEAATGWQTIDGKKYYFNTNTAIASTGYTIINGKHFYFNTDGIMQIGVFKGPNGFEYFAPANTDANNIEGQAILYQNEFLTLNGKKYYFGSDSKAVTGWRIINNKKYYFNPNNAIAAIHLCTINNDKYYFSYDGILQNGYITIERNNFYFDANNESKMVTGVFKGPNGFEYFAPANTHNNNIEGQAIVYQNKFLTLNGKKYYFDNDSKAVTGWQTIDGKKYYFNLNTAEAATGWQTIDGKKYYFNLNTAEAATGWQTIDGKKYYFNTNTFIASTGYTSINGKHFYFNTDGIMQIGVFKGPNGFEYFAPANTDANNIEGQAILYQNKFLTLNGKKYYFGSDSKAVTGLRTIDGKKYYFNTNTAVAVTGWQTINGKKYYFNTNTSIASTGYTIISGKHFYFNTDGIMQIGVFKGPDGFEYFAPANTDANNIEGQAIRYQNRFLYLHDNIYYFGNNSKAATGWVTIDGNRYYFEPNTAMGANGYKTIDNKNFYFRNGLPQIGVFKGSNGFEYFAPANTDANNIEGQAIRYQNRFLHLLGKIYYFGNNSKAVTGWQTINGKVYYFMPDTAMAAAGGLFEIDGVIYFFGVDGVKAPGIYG

This assay concerns the target T1, ToxA-Holotoxin of Clostridium difficile (Clostridium difficile, UniProt P16154 1-2710).
T1 construct: also called Toxin A
As to the kind of experiment: ELISA, monovalent VHH on coated antigen, anti-myc detection.
Take B1: the binding result was “no binding (tested: 8-1000 ng VHH)”.
On to B2, for which the binding result is on record as “no binding (tested: 8-1000 ng VHH)”.
Next, B3: “no binding (tested: 8-1000 ng VHH)”; B4: “no binding (tested: 8-1000 ng VHH)”.
